Data on one molecule can be found in article PMC6629707, “The Kindlin2-p53-SerpinB2 signaling axis is required for cellular senescence in breast cancer” (Cell Death & Disease, 2019).

The assay deals with T1, purified p53 protein (Abcam) (UniProt P04637 1-393).
T1 construct: p53 protein bought from Abcam; also called immobilized p53; source: bought: Abcam
The assay can be described thus: ELISA; solid phase direct binding assay; p53 immobilised on 96-well plates at 5 μg/well, 20 h, 4 °C; 3% BSA; GST-tagged Kindlin-2 variants or GST 0–7 µM in TBS with 1 mM CaCl2, 1 mM MgCl2, 2 h at 37 °C; detected with anti-GST-HRP; GST signal subtracted; one-site binding fit. Particulars: both partners purified. For orientation: ELISA stands for enzyme-linked immunosorbent assay.

T1 sequence (P04637 whole entry): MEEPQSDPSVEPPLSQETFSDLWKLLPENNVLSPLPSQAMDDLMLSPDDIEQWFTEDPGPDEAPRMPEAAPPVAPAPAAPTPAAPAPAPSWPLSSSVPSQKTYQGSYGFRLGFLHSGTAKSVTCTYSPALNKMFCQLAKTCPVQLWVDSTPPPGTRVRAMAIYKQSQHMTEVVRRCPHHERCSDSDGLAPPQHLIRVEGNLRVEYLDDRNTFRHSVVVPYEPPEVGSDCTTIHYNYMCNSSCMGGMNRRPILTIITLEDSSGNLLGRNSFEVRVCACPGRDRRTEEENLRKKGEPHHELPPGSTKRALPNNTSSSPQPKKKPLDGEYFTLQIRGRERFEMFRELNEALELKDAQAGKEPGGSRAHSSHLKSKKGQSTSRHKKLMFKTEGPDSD

B1: GST-tagged full-length wild-type Kindlin-2 (natural protein, UniProt Q96AC1 1-680, looked up)
chain: MALDGIRMPDGCYADGTWELSVHVTDLNRDVTLRVTGEVHIGGVMLKLVEKLDVKKDWSDHALWWEKKRTWLLKTHWTLDKYGIQADAKLQFTPQHKLLRLQLPNMKYVKVKVNFSDRVFKAVSDICKTFNIRHPEELSLLKKPRDPTKKKKKKLDDQSEDEALELEGPLITPGSGSIYSSPGLYSKTMTPTYDAHDGSPLSPTSAWFGDSALSEGNPGILAVSQPITSPEILAKMFKPQALLDKAKINQGWLDSSRSLMEQDVKENEALLLRFKYYSFFDLNPKYDAIRINQLYEQAKWAILLEEIECTEEEMMMFAALQYHINKLSIMTSENHLNNSDKEVDEVDAALSDLEITLEGGKTSTILGDITSIPELADYIKVFKPKKLTLKGYKQYWCTFKDTSISCYKSKEESSGTPAHQMNLRGCEVTPDVNISGQKFNIKLLIPVAEGMNEIWLRCDNEKQYAHWMAACRLASKGKTMADSSYNLEVQNILSFLKMQHLNPDPQLIPEQITTDITPECLVSPRYLKKYKNKQITARILEAHQNVAQMSLIEAKMRFIQAWQSLPEFGITHFIARFQGGKKEELIGIAYNRLIRMDASTGDAIKTWRFSNMKQWNVNWEIKMVTVEFADEVRLSFICTEVDCKVVHEFIGGYIFLSTRAKDQNESLDEEMFYKLTSGWV
notes: Kindlin-2, full length, wild type; expressed as a GST fusion protein; also called Kindlin-2-GST; GST-tagged WT Kindlin-2; source: Escherichia coli, purified on Glutathione-Sepharose
By EC50 is commonly meant the midpoint of the concentration-response curve. The molecule B1 returned an EC50 of 480 nM.
